This passage reports # Events results from patent US20120288878A1.

Test [1] addresses mutant membrane-bound TNFα on stably transfected CHO cells (B-220 cells) (UniProt P01375). The test can be described thus: FACS, gate P4: CHO cells bound to anti-CD19 beads (FIG. 3 middle panel).
Test [2] has the same target. The test can be described thus: FACS, gate P4: CHO cells bound to anti-CD19 beads, mixed beads (FIG. 4). For orientation: Flow cytometry measures light scatter and fluorescence of single cells or particles in a stream.

Sequence of UniProt P01375 (P01375 other isoform, or with tags, fused parts or gaps mutant limits assumed): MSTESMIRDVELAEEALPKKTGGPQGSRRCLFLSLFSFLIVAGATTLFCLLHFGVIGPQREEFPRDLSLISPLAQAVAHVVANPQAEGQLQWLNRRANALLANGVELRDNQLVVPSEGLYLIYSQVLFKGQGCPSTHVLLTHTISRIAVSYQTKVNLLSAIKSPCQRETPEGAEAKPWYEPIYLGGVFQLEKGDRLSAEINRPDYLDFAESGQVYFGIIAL

Regarding “APC-labeled unrelated antibody (anti-CD19) coated on beads”, the values for the # Events in test [1] and in test [2] were 6 events and 2 events, respectively.
